Data set [1] concerns the molecule itself. As to the kind of experiment: AUC.
Data set [2] concerns the target T1, actin filaments (rabbit skeletal muscle actin) (rabbit, UniProt P68135 1-377). As to the kind of experiment: co-sedimentation.
For data set [3], the target named is T1, actin filaments (rabbit skeletal muscle …). As to the kind of experiment: co-sedimentation. The source holds these as a separate data set.

Read-outs that look alike come from different tables or passages of the source.

B1: Drp1-WT (full-length human DRP1 isoform 3) (enzyme, UniProt O00429-4 1-699, looked up)
chain: MEALIPVINKLQDVFNTVGADIIQLPQIVVVGTQSSGKSSVLESLVGRDLLPRGTGIVTRRPLILQLVHVSQEDKRKTTGEENGVEAEEWGKFLHTKNKLYTDFDEIRQEIENETERISGNNKGVSPEPIHLKIFSPNVVNLTLVDLPGMTKVPVGDQPKDIELQIRELILRFISNPNSIILAVTAANTDMATSEALKISREVDPDGRRTLAVITKLDLMDAGTDAMDVLMGRVIPVKLGIIGVVNRSQLDINNKKSVTDSIRDEYAFLQKKYPSLANRNGTKYLARTLNRLLMHHIRDCLPELKTRINVLAAQYQSLLNSYGEPVDDKSATLLQLITKFATEYCNTIEGTAKYIETSELCGGARICYIFHETFGRTLESVDPLGGLNTIDILTAIRNATGPRPALFVPEVSFELLVKRQIKRLEEPSLRCVELVHEEMQRIIQHCSNYSTQELLRFPKLHDAIVEVVTCLLRKRLPVTNEMVHNLVAIELAYINTKHPDFADACGLMNNNIEEQRRNRLARELPSAVSRDKVASGGGGVGDGVQEPTTGNWRGMLKTSKAEELLAEEKSKPIPIMPASPQKGHAVNLLDVPVPVARKLSAREQRDCEVIERLIKSYFLIVRKNIQDSVPKAVMHFLVNHVKDTLQSELVGQLYKSSLLDDLLTESEDMAQRRKEAADMLKALQGASQIIAEIRETHLW
By stoichiometry N is commonly meant a count of units in the complex or per binding partner. Broadly, the Kd is the equilibrium constant for the complex coming apart. Read a high Kd as lower affinity. B1: the “stoichiometry N” value in data set [1] stood at 2. In addition, the values for the Kd in data set [2] and in data set [3] were 1.2 µM and 1.7 µM, respectively.

The record behind these values is PMC10881151 (Molecular Biology of the Cell, 2024).
